Measured values published in US20150218281A1 (Ablynx, published 2015).
Changes are numbered by the printed parent chain. Read-outs that look alike come from different tables or passages of the source.

Experiments:
[1] = target: T1, biotinylated hOX40L (R&D Systems, biotinylated in house) (human, UniProt P23510 51-183, biotinylated with Sulfo-NHS-LC-Biotin, sites not stated); assay: hOX40L/hOX40 AlphaScreen, assay 3, heated at Tm+10 C
T1 construct: same bought protein as m10, biotinylated; also called biotinylated OX40L
T1 sequence: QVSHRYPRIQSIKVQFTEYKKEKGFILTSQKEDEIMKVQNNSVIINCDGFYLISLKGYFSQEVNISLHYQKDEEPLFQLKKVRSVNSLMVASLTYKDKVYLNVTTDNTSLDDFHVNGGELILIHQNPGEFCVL
Description: (§1) Next, streptavidin donor beads were added and incubated for an additional 1 hour. Fluorescence was measured by reading plates on the EnVision Multilabel Plate Reader using an excitation wavelength of 680 nm and an emission wavelength of 520 nm.
(§2) In the TSA assay, Nanobodies were diluted to a concentration of 0.2 mg/ml and melting temperature (Tm) was determined at different pH by stepwise increase in temperature in presence of Sypro Orange, a dye that binds to […] residues that become exposed upon unfolding of the protein, using the Lightcycler (Roche) for detection. […] In SEC analysis, the Nanobodies were analyzed on a Phenomenex matrix to allow detection of multimers, aggregates or ‘stickyness’.

[2] = target: T1, biotinylated hOX40L (R&D Systems, …); assay: hOX40L/hOX40 AlphaScreen, assay 3, native
Description: as §1, §2

[3] = target: T2, recombinant human OX40L (extracellular domain, R&D Systems) (human, UniProt P23510 51-183); assay: cell-based or functional assay
T2 sequence: T1 sequence

[4] = target: T1, biotinylated hOX40L (R&D Systems, …); assay: hOX40L/hOX40 AlphaScreen, assay 1, native
Description: Next, streptavidin donor beads were added and incubated for an additional 1 hour. Fluorescence was measured by reading plates on the EnVision Multilabel Plate Reader using an excitation wavelength of 680 nm and an emission wavelength of 520 nm. […]

[5] = target: T1, biotinylated hOX40L (R&D Systems, …); assay: hOX40L/hOX40 AlphaScreen, assay 2, native
Description: as §1, §2

[6] = target: T1, biotinylated hOX40L (R&D Systems, …); assay: hOX40L/hOX40 AlphaScreen, assay 2, heated at Tm+10 C
Description: as §1, §2

[7] = target: T1, biotinylated hOX40L (R&D Systems, …); assay: hOX40L/hOX40 AlphaScreen, sample heated 1 min at Tm+10 C
Description: as §1, §2

[8] = target: T1, biotinylated hOX40L (R&D Systems, …); assay: hOX40L/hOX40 AlphaScreen, native sample
Description: as §1, §2

[9] = target: T2, recombinant human OX40L (extracellular …); assay: cell-based or functional assay; remark: listed apart in the source

B1: OX40L030 (VHH, not shown: small tags and cut ends)
VHH: DVQLVESGGGLVQAGGSLRLSCAASRSIGRLDRMGWYRHRTGEPRELVATITGGSSINYGDFVKGRFTISIDNAKNTVYLQMNNLKPEDTAVYYCNFNKYVTSRDTWGQGTQVTVSS
IC50 [1]: 0.143 nM
IC50 [2]: 0.143 nM
IC50, T cell assay with rec. hOX40L [3]: 11 nM
IC50 [4]: 0.076 nM

B2: OX40L040 (VHH, not shown: small tags and cut ends)
VHH: B1 VHH with A14P, I71R, A74S, N84S, K86R, Q112L
IC50 [5]: 0.092 nM
IC50 [1]: 0.082 nM
IC50 [2]: 0.102 nM
IC50, T cell assay with rec. hOX40L [3]: 9 nM
IC50 [6]: 0.084 nM
IC50 [4]: 0.046 nM

B3: OX40L053 (VHH, not shown: small tags and cut ends)
VHH: B1 VHH with A14P, A74S, N84S, K86R, Q112L
IC50 [1]: 0.126 nM
IC50 [2]: 0.118 nM

B4: OX40L054 (VHH, not shown: small tags and cut ends)
VHH: B1 VHH with A14P, I71R, N84S, K86R, Q112L
IC50 [1]: 0.094 nM
IC50 [2]: 0.079 nM

B5: OX40L055 (VHH, not shown: small tags and cut ends)
VHH: B1 VHH with A14P, I71R, A74S, K86R, Q112L
IC50 [1]: 0.106 nM
IC50 [2]: 0.091 nM

B6: OX40L028 (VHH, not shown: small tags and cut ends)
VHH: DVQLVESGGGLVQPGGSLRLSCAASGRTFSSIYAKGWFRQAPGKEREFVAAISRSGRSTSYADSVKGRFTISRDNAKNTVYLQMNSLRPEDTAVYYCAAVGGATTVTASEWDYWGLGTLVTVSS
IC50 [7]: 0.07 nM
IC50 [8]: 0.07 nM
IC50, T cell assay with rec. hOX40L [9]: 2.3 nM

B7: OX40L039 (VHH, not shown: small tags and cut ends)
VHH: B6 VHH with A76S, L116Q
IC50 [7]: 0.05 nM
IC50 [8]: 0.05 nM
IC50, T cell assay with rec. hOX40L [9]: 1.6 nM
